Test results taken from publication PMC11388069.

Tests used:
[1] = immunofluorescence, plasma membrane P-gp; details: glycan changed form; control: parental MCF7DOX
[2] = proteomics and blot of isolated microvesicles; details: glycan changed form; control: MCF7DOX-MVs
[3] = immunoprecipitation, western blot; details: glycan changed form; control: parental MCF7DOX
[4] = NHS-LC-biotin labelled membranous P-gp degradation; details: glycan changed form; control: parental MCF7DOX
[5] = AHA labelling of newly synthesized P-gp; details: glycan changed form; control: parental MCF7DOX

Question: With “P-glycoprotein (P-gp, MDR1): MGAT3 overexpression” as the substance, how does the localisation_or_trafficking [1] read?
Answer: The localisation_or_trafficking was “decreases”.

Question: What about the “other: recruitment into microvesicles” value [2] of the same substance?
Answer: Its value is “decreases”.

Question: And the expression_or_secretion [3]?
Answer: The expression_or_secretion was “decreases”.

Question: And the degradation_or_half_life [4]?
Answer: The degradation_or_half_life was “increases”.

Question: What about the “other: new protein synthesis” value [5] of the same substance?
Answer: The value was “no change”.
